Laboratory results reported in paper PMC12594388, “Enzymatic properties of a L-asparaginase without secondary glutaminase activity from Streptomyces scabrisporus” (PLOS One, 2025).

Legend:
[1] = substrate: NC(=O)C[C@H](N)C(=O)O; assay: Nessler ammonium assay, Michaelis-Menten fit; type: biochemical, Embleya scabrispora; settings: pH 10 (optimum), 37 °C, 0.5-20 mM asparagine
Source text: Nessler ammonium assay, Michaelis-Menten fit on S. scabrisporus L-asparaginase

[2] = substrate: NC(=O)C[C@H](N)C(=O)O; assay: Nessler ammonium assay, Michaelis-Menten fit; type: biochemical, Rhizobium etli; settings: physiological pH (printed as pH 7 and as phosphate pH 7.4), 37 °C

Protein	Km [1] [mM]	kcat [1] [s⁻¹]	Km [2] [mM]	kcat [2] [s⁻¹]
S. scabrisporus L-asparaginase (Embleya scabrispora) (protein, codon-optimised gene in pET28a(+) (NdeI/EcoRI; pET28a-AnsSs), E. coli BL21(DE3), HisTrap purified, 34 kDa) MRPEDTVPHESTTRYAELAEVVRSGFVESRHFGSLVALAPDGRPALELGVPNEPVVPRSSAKPFQALACLRAGAPLSGAHVAIAAGSHTGQDFHVDAVEDILTRSGLTFDALGCPPSRPEDEDTYQEMIARGEENTRERMNCSGKHAAMLAACVASGWPTEGYLDPGHPLQVLVREGIEELAGESVAHTAVDGCGAPVFAMTLTGLARGVRALATATTGPERVVAKAMREHPAYVGGDGQANTEVMRLLPGVLVKGGAEGVFVAATTAGHAVAVKVIDGSPRATTALALAALHRLGVDVSAASEWTTVPVLGGGLPVGEVRVTSHLG	7.361 ± 1.78	40.8 ± 2	–	–
R. etli L-asparaginase (Rhizobium etli CFN 42) (protein, pET28a (NcoI/EcoRI; pET28a-AnsRe), E. coli BL21(DE3), HisTrap purified, 38 kDa) MTPSEDFVVTDRGGIVENSHRVHAAVVDAKGRLLYALGNPTRMTLARSAAKPAQALAILETEGVAGYGFDDADIALMCASHSSEDRHIARTRAMLSKIKAEEADLRCGGHPSLSEMVNRSWIKQDFIPTAVCSNCSGKHVGMLAGARAIGAGTDGYHLPDHPMQGRVKRTVAELCDLDAGDVEWGTDGCNLPTPAFPLDRLGRIYAKLASAADGSDAGEGQSTRCAALAHIFRAMARHPEMVAGEGRYCTMLMRAFDGALVGKLGADASYAIGVRASDATRQLGTDGALGISVKIEDGNLEMLYAVVTELLERLGIGSPDVRSQLASFHHPQRVNTMGVTTGGVSFPFKLRGSKSNVDDPRLAAVAR	–	–	15.9 ± 4.7	140.3 ± 7
